Patent US20100184697A1 (U S OF AMERICA AS REPRESENTED BY THE SECRETAR, published 2010)
Square brackets hold non-standard residues; d marks the D form. Ends that are not written are not given here. rhodamine = not defined here; Nle = CCCC[C@H](N)C(=O)O

Assays:
[1] = molecular target: T1, STAT3 tagged with eGFP on its N-terminus (UniProt P40763 1-770); experiment: FRET efficiency (1-D0/D1) by rhodamine photobleaching in living cells
T1 construct: Stably expressed inside living HEK293 cells; also called eGFP-STAT3; not shown: eGFP (enhanced green fluorescent protein) tag
T1 sequence (P40763 whole entry): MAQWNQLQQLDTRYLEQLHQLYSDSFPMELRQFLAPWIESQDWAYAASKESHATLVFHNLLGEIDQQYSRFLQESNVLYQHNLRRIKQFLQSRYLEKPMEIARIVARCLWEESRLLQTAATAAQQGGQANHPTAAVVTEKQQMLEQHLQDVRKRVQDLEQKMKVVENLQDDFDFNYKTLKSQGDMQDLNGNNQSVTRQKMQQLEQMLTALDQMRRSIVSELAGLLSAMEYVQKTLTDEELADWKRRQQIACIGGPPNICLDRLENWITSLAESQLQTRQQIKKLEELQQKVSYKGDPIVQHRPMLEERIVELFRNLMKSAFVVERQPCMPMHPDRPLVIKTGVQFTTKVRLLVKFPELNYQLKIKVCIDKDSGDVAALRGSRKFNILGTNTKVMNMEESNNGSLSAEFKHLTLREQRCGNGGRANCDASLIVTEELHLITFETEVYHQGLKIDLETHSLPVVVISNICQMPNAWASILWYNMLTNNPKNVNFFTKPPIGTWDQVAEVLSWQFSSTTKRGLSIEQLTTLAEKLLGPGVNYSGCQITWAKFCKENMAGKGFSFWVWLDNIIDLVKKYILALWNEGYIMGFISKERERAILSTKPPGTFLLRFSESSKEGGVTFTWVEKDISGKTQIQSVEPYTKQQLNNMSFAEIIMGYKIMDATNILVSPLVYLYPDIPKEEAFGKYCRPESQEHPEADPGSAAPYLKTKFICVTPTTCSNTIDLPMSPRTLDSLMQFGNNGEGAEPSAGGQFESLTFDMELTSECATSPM
Description: (§1) An additional cysteine residue was positioned at the C-terminus of penetratin to facilitate labeling. Excitation of eGFP (donor) was facilitated using a 488-nm light source, and the emission spectrum was detected. In the absence of energy transfer between eGFP and rhodamine, excitation of eGFP would lead to an emission peak at 520-540 nm, whereas energy transfer from eGFP to an adjacent rhodamine fluorochrome acceptor would cause an emission in the 560-600 nm range. […] To confirm that FRET was occurring, acceptor photobleaching was performed with a 561 nm laser using an LSM 510 confocal microscope (Zeiss).
(§2) Excitation of eGFP was facilitated, and the emission spectrum detected, in accordance with the methods described in Example 6. FRET efficiency was calculated using equation 1-D0/D1, where D0 is fluorescence intensity of eGFP before rhodamine photobleaching and D1 is the intensity after rhodamine photobleaching.

[2] = molecular target: T2, eGFP-STAT1 (UniProt P42224 1-750); experiment: as above
T2 construct: Expressed inside living cells; not shown: eGFP (enhanced green fluorescent protein) tag
T2 sequence (looked up): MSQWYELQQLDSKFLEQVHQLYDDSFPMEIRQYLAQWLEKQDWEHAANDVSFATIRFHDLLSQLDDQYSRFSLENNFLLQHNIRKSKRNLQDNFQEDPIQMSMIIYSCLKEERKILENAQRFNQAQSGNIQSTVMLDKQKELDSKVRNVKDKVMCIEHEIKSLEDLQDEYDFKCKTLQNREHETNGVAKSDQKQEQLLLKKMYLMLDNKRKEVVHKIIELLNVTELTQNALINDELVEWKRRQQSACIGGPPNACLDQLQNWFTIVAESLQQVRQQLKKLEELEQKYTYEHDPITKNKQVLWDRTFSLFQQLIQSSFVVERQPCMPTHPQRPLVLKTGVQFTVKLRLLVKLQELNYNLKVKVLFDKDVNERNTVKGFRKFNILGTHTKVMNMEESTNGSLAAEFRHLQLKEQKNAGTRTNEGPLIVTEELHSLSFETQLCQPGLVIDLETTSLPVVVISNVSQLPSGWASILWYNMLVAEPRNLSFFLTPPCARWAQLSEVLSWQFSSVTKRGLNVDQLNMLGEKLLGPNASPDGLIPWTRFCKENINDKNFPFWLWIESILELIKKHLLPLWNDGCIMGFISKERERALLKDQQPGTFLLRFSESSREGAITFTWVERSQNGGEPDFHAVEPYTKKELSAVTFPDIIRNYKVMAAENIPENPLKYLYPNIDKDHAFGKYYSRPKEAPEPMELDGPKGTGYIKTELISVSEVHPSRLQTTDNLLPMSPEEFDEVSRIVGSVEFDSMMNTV
Description: as §1, §2

[3] = molecular target: T3, eGFP; experiment: as above
T3 construct: Control, expressed inside living cells
Description: as §1, §2

[4] = molecular target: T2, eGFP-STAT1; experiment: FRET (eGFP donor, rhodamine acceptor, acceptor photobleaching) in living cells

FRET efficiency [1]: 90.8%
FRET efficiency [2]: ~12.8%
FRET efficiency [3]: ~15.2%
binding result [4]: no binding
B1: rhodamine-labeled STAT3-HEL2A-2 (peptide)
peptide: LDTRYLEQLHKLYRQIKIWFPNRR[Nle]KWKKC(rhodamine)
modifications: not fully specified; reading uncertain
notes: Synthetic peptide; also called STAT3-HEL2A-2 labeled with rhodamine
